Data from patent US20110065645A1, “Compositions and Methods for Modulating Neuron Degeneration and Neuron Guidance” (The Regents of the University of California, priority 2009, published 2011).

Experiments:
Fzd3-mCherry (mouse) = Fzd3-mCherry (mouse) (UniProt Q61086); experiment: cell-based or functional assay
Fzd3-EGFP (mouse) = Fzd3-EGFP (mouse) (UniProt Q61086); experiment: cell-based or functional assay
PKA = experiment: Western blot of activated phospho-PKA (Thr197) in dissociated commissural neurons; type: cell-based, rat; conditions: Shh-N 2.5 μg/ml for one hour; KT5720 25 μM for 15 minutes
Description: To confirm that PKA activity can be reduced in commissural neurons exposed to Shh, we treated dissociated spinal cord commissural neurons with Shh and analyzed the level of activated PKA. 24 hr after plating, commissural neurons were serum starved overnight and then treated with 2.5 μg/ml (150 nM) of Shh-N recombinant protein (R&D) for one hour prior to lysate collection. Forskolin (25 μM), and the PKA inhibitor, KT5720 (25 μM) were added to the commissural neuron culture as controls for 15 minutes before lysis. We then tested these lysates for levels of activated PKA with an antibody that specifically recognizes an activated form of the catalytic domain of PKA (phosphorylated at Thr197).
Dissociated commissural neuronal culture. Spinal cords were isolated from rat E13 embryos and commissural neurons were dissociated as previously described.^(8) In brief, embryos were treated with Dispase I (0.25 mg/ml; D4818, Sigma) for 5 minutes prior isolation of spinal cords, followed by collection of spinal cord dorsal domains by microdissection and incubation with Trypsin (1 mg/ml; T47-99, Sigma) for 10-12 min in a 37° C. water bath. The tissue was then triturated with flamed glass pipettes and a single cell suspension was plated on poly-D-lysine (PDL; 20 μg/ml) and laminin (10 μg/ml) coated coverslips or 12 well plates (Corning). More than 90% cells in these cultures express TAG-1, a marker for spinal cord commissural neurons (FIG. 35B). 10^5 dissociated cells were plated on PDL/laminin coated coverslips and cultured for 24 hrs before processed for immunohistochemistry as described above. For Western blot analysis, 10^6 dissociated cells were plated on PDL/laminin coated 12-well tissue culture plates and cultured initially for 24 hrs in dorsal explant media (replenished daily) then changed to low serum medium overnight prior to treatments. […]

β-catenin = β-catenin immunostaining in commissural axon growth cones; type: cell-based; conditions: bath application; LiCl 2 mM
From the text: To understand how atypical PKC/Par pathway regulates axon guidance, we set out to determine the subcellular localization of aPKC, their substrates and downstream cellular effectors. […] Thus, our high-resolution confocal imaging detects a tendency of β-catenin being concentrated to one side of the growth cone (FIG. 9A). It is possible that there is low level of Wnt proteins in the culture (many neurons express Wnts). […] Therefore, it is also possible that intrinsic aPKC signaling can create chirality within the growth cone with out extrinsic signals. Such intrinsic polarity may then robustly regulate cellular morphology upon directional instructions from the environment such as a Wnt gradient. It is well known that GSK3β phosphorylates β-catenin, which then leads to proteosome-mediated degradation of β-catenin. And it is also known that GSK3β is phosphorylated and inhibited by PKCζ^(1,2). Therefore, inhibiting GSK3β or the proteosome activity generally should increase β-catenin level throughout the growth cone, canceling the asymmetry. […] We are now testing the hypothesis that Wnt proteins may locally activate PKCζ, which then inhibits GSK3β and locally stabilizes β-catenin, which is part of the asymmetric cellular mechanism leading to directional choice of a growth cone. We examine the localization of β-catenin in post-crossing commissural axon growth cones in the “post-crossing” assay and “open-book” assays.

TH axons = experiment: mdDA explant assay with Wnt-expressing cell clumps, anti-TH staining; type: cell-based; conditions: embryonic mdDA explants from ventral midbrain
From the text: FIG. 7. Multiple Wnts attract TH axons in explant assays. FIG. 7 depicts histogram showing that embryonic mdDA explants dissected out from the ventral midbrain and cultured with cell clumps expressing various Wnts.
3c: Use of explant assays to test the effects of Wnts on mdDA and 5-HT axon growth and guidance. To directly address whether Wnts regulate the guidance of these monoaminergic axons, we use explant assays to test the function of the identified Wnts and determine whether they are attractive or repulsive. […] We plan to continue test additional Wnts especially those which are expressed in the brainstem and the forebrain targets using the same assay.

Chain of Fzd3-mCherry (mouse) (Q61086 23-666): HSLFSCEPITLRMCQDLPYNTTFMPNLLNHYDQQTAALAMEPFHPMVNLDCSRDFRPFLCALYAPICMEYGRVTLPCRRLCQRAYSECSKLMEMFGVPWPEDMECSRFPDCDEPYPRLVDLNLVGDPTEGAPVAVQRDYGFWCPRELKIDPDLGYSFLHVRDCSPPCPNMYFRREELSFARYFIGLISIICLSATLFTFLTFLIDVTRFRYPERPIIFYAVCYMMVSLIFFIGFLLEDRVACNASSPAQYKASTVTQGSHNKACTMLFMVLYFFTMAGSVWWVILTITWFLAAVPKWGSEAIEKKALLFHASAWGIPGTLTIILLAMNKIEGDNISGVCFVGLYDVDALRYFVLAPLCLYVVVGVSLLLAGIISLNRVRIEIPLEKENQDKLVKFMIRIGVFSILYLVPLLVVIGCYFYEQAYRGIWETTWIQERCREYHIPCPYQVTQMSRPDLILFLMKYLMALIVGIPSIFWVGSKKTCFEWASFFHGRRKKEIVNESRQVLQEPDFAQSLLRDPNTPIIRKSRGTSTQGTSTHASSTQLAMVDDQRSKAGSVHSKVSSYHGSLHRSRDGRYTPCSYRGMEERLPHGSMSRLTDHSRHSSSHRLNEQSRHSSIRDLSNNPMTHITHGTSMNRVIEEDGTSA
Chain of Fzd3-EGFP (mouse) (Q61086 23-666): as above

Dvl1-EGFP (from UniProt P51141 1-695)
Fzd3 level at the cell membrane (surface biotinylation, avidin IP, anti-mCherry IB) in HEK293T cells (Fzd3-mCherry (mouse)): 3 fold

recombinant Wnt5a (R&D Systems) (ligand)
commissural axon length after 24 hours on Wnt5a-coated coverslips (Fzd3-EGFP (mouse)): 36%

c1ccc2c(Oc3nc(Nc4ccc(N5CCOCC5)cc4)c4ncn(C5CCCCC5)c4n3)cccc2c1 [Purmorphamine, reference compound]
level of activated PKA (PKA): reduce the level of activated PKA

B1: Wnt3a: purified Wnt3a protein; also expressed by cell clumps in explant assays (protein, UniProt P56704 19-352, looked up)
Protein Wnt-3a: SYPIWWSLAVGPQYSSLGSQPILCASIPGLVPKQLRFCRNYVEIMPSVAEGIKIGIQECQHQFRGRRWNCTTVHDSLAIFGPVLDKATRESAFVHAIASAGVAFAVTRSCAEGTAAICGCSSRHQGSPGKGWKWGGCSEDIEFGGMVSREFADARENRPDARSAMNRHNNEAGRQAIASHMHLKCKCHGLSGSCEVKTCWWSQPDFRAIGDFLKDKYDSASEMVVEKHRESRGWVETLRPRYTYFKVPTERDLVYYEASPNFCEPNPETGSFGTRDRTCNVSSHGIDGCDLLCCGRGHNARAERRREKCRCVFHWCCYVSCQECTRVYDVHTCK
β-catenin level and asymmetry in the growth cone (β-catenin): increased the levels of β-catenin throughout the growth cone | attraction of TH axons (TH axons): strongest effect

B2: Wnt7b: Wnt family protein expressed by cell clumps in the TH axon explant assay (protein, UniProt P56706 25-349, looked up)
Protein Wnt-7b: ALSSVVALGANIICNKIPGLAPRQRAICQSRPDAIIVIGEGAQMGINECQYQFRFGRWNCSALGEKTVFGQELRVGSREAAFTYAITAAGVAHAVTAACSQGNLSNCGCDREKQGYYNQAEGWKWGGCSADVRYGIDFSRRFVDAREIKKNARRLMNLHNNEAGRKVLEDRMQLECKCHGVSGSCTTKTCWTTLPKFREVGHLLKEKYNAAVQVEVVRASRLRQPTFLRIKQLRSYQKPMETDLVYIEKSPNYCEEDAATGSVGTQGRLCNRTSPGADGCDTMCCGRGYNTHQYTKVWQCNCKFHWCCFVKCNTCSERTEVFTCK
attraction of TH axons (TH axons): attracts the TH-positive neuron axons
